Laboratory results published in the DeepSol protein solubility set.

Assay: soluble on expression in E. coli; label from the status in PepcDB or PDB records

MEITNVNEYEAIAKQKLPKMVYDFYASGAEDQWTLAENRNAFSRILFRPRILIDVTNIDMTTTILGFKISMPIMIAPTAMQKMAHPEGEYATARAASAAGTIMTLSSWATSSVEEVASTGPGIRFFQLYVYKDRNVVAQLVRRAERAGFKAIALTVDTPRLGRREADIKNRFVLPPFLTLKNFEGIDLGKMDKANDSGLSSYVAGQIDRSLSWKDVAWLQTITSLPILVKGVITAEDARLAVQHGAAGIIVSNHGARQLDYVPATIMALEEVVKAAQGRIPVFLDGGVRRGTDVFKALALGAAGVFIGRPVVFSLAAEGEAGVKKVLQMMRDEFELTMALSGCRSLKEISRSHIAADWDGPSSRAVARL
soluble on expression in E. coli: soluble

MQFSYVNPTMIHFGQGQIASIRRDIPKDHKVLVLYGGGSIKRNGVYDQVVEALSEHQWVEFSGVEPNPTKETLDKAVHIVKNQHIDFILAVGGGSVIDGSKYVAAAAFYEGDGWDILTGQHTVKQATPIGAILTLPATGSESNTGAVITKAETQDKLAFLSPAVQPRFAVLDPDVMKSLPERQLVNGLVDAWVHVCEQYLTLPTQAMVQEGYAEVLLRNLLALGADFVNRDNDAWRANLMWTANQALNGLIGTGVPQDWATHMIGHELTALWHVDHARSLAIVQPWLLRNQLKHKKAKLEQMGKNVFGLPQSDDLAEKTIAAIEAFYHQLNVATQFGEHGMAKEAAVDAVLQQLTAHGMHKLGEQGTIDLQESRKILENALY
soluble on expression in E. coli: not soluble

MSLTPRFIDLHTHTTASDGSDSPADLVRKATEAGLAAVAVTDHDTVAGLDEAVAMGHETGIEVVRGCELGVRSEYGEIHILGLWLPEKPETLLDAMKELRRHRNERNERIVDNLRTLGMDITYEEVRALSGGVSVGRPHIALALLRHGYIRTPQEAFDRFIGPGAPAYAPKKVFSPAEGVRLLASCGATVAIAHPMLLRCPEEWLDDTVADLKVAGLDAIEAYHSEHSHKDERRCVDIADRHGLVLTGGSDYHGKAKPAISLGRGREGHHHHHH
soluble on expression in E. coli: not soluble

SLYAISISERTLEKVNAIIESEIKPNAYLASGDLLVHTSRLFMDTPYQANTLVHHSDLPYALVVNFDGMDCFTYLDYVVALSQASDTPSFFSSLMNIRYKKSHIHFYDRKHFFSDWYALSPQIAIDITEKMSPDAITIPKQLNQKVEGGEYIQGLGVIPRMITYIPSDKITQSVLDNLQNGDLVGVYSPKIGLDVTHTGIIVKENNQILYRNASSLSKYNKVVDLPFMDYIRSKPGIVVLRVE
soluble on expression in E. coli: soluble

MGSDKIHHHHHHENLYFQGMQLLKELCSIHAPSGNEEPLKDFILEYIRSNAGSWSYQPVIYADNDLQDCIVLVFGNPRTAVFAHMDSIGFTVSYNNHLHPIGSPSAKEGYRLVGKDSNGDIEGVLKIVDEEWMLETDRLIDRGTEVTFKPDFREEGDFILTPYLDDRLGVWTALELAKTLEHGIIAFTCWEEHGGGSVAYLARWIYETFHVKQSLICDITWVTEGVEAGKGVAISMRDRMIPRKKYVNRIIELARQTDIPFQLEVEGAGASDGRELQLSPYPWDWCFIGAPEKDAHTPNECVHKKDIESMVGLYKYLMEKL
soluble on expression in E. coli: soluble

MSLLRFGIISTAKIAQDHVIPAIQDAENCVVSAIASRDHARARAVAERFSVPHAFGSYEEMLASDVIDAVYIPLPTAQHVEWTIKAANAGKHVLCEKPIALKAEEIDTLIAARDRNGVIVSEAFMVTYSPVWAKVKELLASGAIGTLKHVQGAFSYFNRDPGNMRNIPELGGGALPDIGVYPTIVTRFATGAEPRRVQATVERDREFGTDIYSSVRADFGTFELSFYLATQLASRQLMVFHGTDGYIEVKSPFNANRWGAEEIELTNQAHNQSQVFRFQDSRQYKLEAEAFARAVRGEGEVVTLENSRKNQLFIDAIYRAAEKDGWETVEGHHHHHH
soluble on expression in E. coli: soluble

MSETKNITVPEINKTVEQMLIKGRWLDALDFWINNTDSLVLIRWLAQFISQLSPEEDSLLLQSIVRWKEGDDEQRWEIFRHAESVGFSTQTGALGVSLFVSQGSLSPAPYDPVYAPSCSEKKIIYGILMHQSNKYYDAPDEGVFFLFRHWCNSHS
soluble on expression in E. coli: not soluble

MIKWGFIGCGEVTKTKSGPAFQKVEHSEVVAVMSRDGAKAKAYAKERGIRKWYDDAQELIDDPEVNAIYIATPPSSHATYAIMAMKAGKPAYIEKPMAVTYEECTRINRISKETGVPCFVAYYRRYLPYFQKVKEMVENGSIGNVINVQVRFAQPPRDLDYNRENLPWRVQADIAGGGYFYDLAPHQIDLLQDMFGCILEASGYKSNRGGLYPAEDTLSACFQFDNGLVGSGSWCFVAHDSAREDRIEIIGDKGMICFSVFTYEPIGLHTERGREEICIGNPEHVQQPLIQAVVDHLLGKSVCSCDGESATLTNWVMDKILGKL
soluble on expression in E. coli: not soluble

MTSTGPETSETPGATTQRHGFGIDVGGSGIKGGIVDLDTGQLIGDRIKLLTPQPATPLAVAKTIAEVVNGFGWRGPLGVTYPGVVTHGVVRTAANVDKSWIGTNARDTIGAELGGQQVTILNDADAAGLAETRYGAGKNNPGLVVLLTFGTGIGSAVIHNGTLIPNTEFGHLEVGGKEAEERAASSVKEKNDWTYPKWAKQVIRVLIAIENAIWPDLFIAGGGISRKADKWVPLLENRTPVVPAALQNTAGIVGAAMASVADTTH
soluble on expression in E. coli: not soluble

MEERNHENTLEKDLEAVGQEAQALEERLKAAEEELKGLKDKYLRLLADFDNYRKRMEEELKAREREGVLKALRALLPVLDDLDRALEFAEASPESIRQGVRAIRDGFFRILAGLGVEEVPGEGEAFDPRYHEAVGLLPGEPGKVAKVFQRGFRMGEALVRPARVAVGEEKREEADLE
soluble on expression in E. coli: soluble

MNKEQECSKNIFDLPREIVIYHLKSAGIFVFEELDCDDIAQTPLLIMAPSVPLHVRLERTPTINLLKCHEKPLTEDQLFLLLSKCQQHTKKCMPSEEEIDQWVEVSSSKPREQSSNRGSKKDSWNHSIFMYNFFHRRGSNKRAAKYLEKIENGKSEKIRARVSQIRNLDLGYISLPMETINLEDAKQRDKLKEKALAETAESKKGKDILNLFTNVYY
soluble on expression in E. coli: not soluble

MEHKIGRGLLLGGLLSRFAGFLQSSEESLTSSFASYSSSFFLLTNTRDKRRSERTHTYMQVAQIICAHGATISTTRATLQRAPQSLLATSPDATSDSDDKIVRILVEALRRSDMSIIVSESFDQWARLAVEAKRLGLISFVEAACPSTISISCHAALSTGRINPEVTFRKVHNIHFMAQKTTGKAFASSNPEPVKGTTTSPFFLLSFFFPFFCSFLLRFSPINFPLLLLMNTAIGEYVLRIVVSGKVIMCRAVFGDSLNECRDGGGTDFEMDRYTSR
soluble on expression in E. coli: not soluble

MSSSGVYTCNSCVLTFDSSDEQRAHMKSDWHRYNLKRRVAQLPPISFETFDSKVSAAAASTSKSAEKEKPVTKKELKRREKQALLEKKKKLLEIARANMLENMQKSQEGNTPDLSKLSLQENEENKEKEEPKKEEPEQLTEEEMAERVMQENVRNRVDIPLEQCLFCEHNKHFKDVEENLEHMFRTHGFYIPEQKYLVDKIGLVKYMSEKIGLGNICIVCNYQGRTLTAVRQHMLAKRHCKIPYESEDERLEISEFYDFTSSYANFNSNTTPDNEDDWEDVGSDEAGSDDEDLPQEYLYNDGIELHLPTGIKVGHRSLQRYYKQDLKPEVILTEGQGTLVAAETRSFLPAFDKKGVQTQQRVWQTERFDKKRLDKRSAKFVNNQPHYRDQLLQ
soluble on expression in E. coli: soluble

MGVMESGRPPAKPRERVFVGGCLHAGMDHDTAGRTSRQILDAVGSAVIADDHFLETVMTGILARGHVLLEDVPGTGKTLTAQSFATALDLSFKRVQFTPDLLPSDITGSNVFNEATGEFDFQPGPVFANVVLADEINRAPPKTQAALLEAMGEKQVTVDGVTHDLPEPFFVIATQNPVEQEGTFGLPEAQRDRFIVKTSMGYPDFGGERELIDRRADRTAQAPSVTSVIDGERLPALQRTVESVTVDGTLRDYVVELGRATREDDRVDVGVSPRGIQRLFEATRAAAVLDGRDYAVPDDVKTVVEEAFAHRLVLTADAGVRGVDPATVVDDVLDRVEVPAVSPLEHHHHHH
soluble on expression in E. coli: not soluble

MGSDKIHHHHHHMLGQRIKSLRKAKKLTQSDVADGIMTKSMLSMIENEKATPSLPALQSIAHRLHVSIDALLIDPRAVEMKQMIEKINSTASGYYAEGQIATMLEPYLEPAINSYWQGQIYYEYGSALRFSDTEKGLHYFDLAEDVFQQLGLRDEQIKVQISKVYFLFFLRRYEEAYRKIDGMMIFQDVPLAHETFLDYQMLQAIRVSVINDNWSQSIVFLREGIRYMREKGVYSDVSNYHRLLALFLSLEEDYEAAEFELEKLRHFFLFTEATALDQILVDLTKGSIAVHREDYAGIREARERLIEVEIEACLHYIGYFEVYLCLWNDSKEELTFDLPSAVSKIWRNAHLWRAGGEYDHAMMLYALAFAMQAGVGLDRQAEVEELTTQLSPGHFKQKIEQTLARLT
soluble on expression in E. coli: not soluble

MGSDKIHHHHHHMWTGFFSKSGTGIAEERHQNRRACTDVPLLAERNSKHPDRPYGFAKYRQSGLDIYAWHGIYFFPRFPFIDIDCIRWVCAGLKAFKHYIRENGLPDLIHAHRMNYAGILAQKISQKYGIPYVVTEHSSTITRGLIRPHQWQPMEKAAAHASALLAVSRHFAHVLQHKYGCEWQYLPPTYWAEYSTDRLNKEKKTTNRISCSAPSRTFAVSKDTMSYSLPLPGRWHNARNCA
soluble on expression in E. coli: not soluble

MPLTLYQRDDCHLCDQAVEVVAQARAGDFDSVFIDDDAALEAVYGARVPVLRDARGRELEWPFDRVRLRAWLDDDAERLEHHHHHH
soluble on expression in E. coli: not soluble

MSKAEFQKFHDEMKALKNAGKHDEFAKKFAAKDAVFIGPLHDPCTADEAAKLAQSDKMAALVKADFDVKIDEVTQIGDVVVERCSISAKLPTGDKNGWSLTVWVKEGGAWKIRNSCITFKAPIPQ
soluble on expression in E. coli: not soluble

MSLTIEDVAKLAGVSIATVSRVINGSGYVSEKTRYKVWKAIEELGYKPEISAKLLASKGKLFNIYVFASKRILSPLQNNGILGEFYGVIIRAIEENCGRLGMNVELKMLENFSESNGADGYIFIGGDLSEKTLKEIKSRKKPFVLVDHYIPGERVDCVISDGYDGAVYATNYLISKGFKRIVHVHGPLHPYGFKMRYDGYKDAMEKAGLMPRFYECDDTEEGTRKVIDIMLNSYGTPEAIFTSNDSIAFWVIKRLKEHNIKVPDDVSVIGFDDIVDAENFDPPLTTLRVFKYEMGCLACKRLHELLTGINPHPVRILVFTQFVKRKSTKEGHHHHHH
soluble on expression in E. coli: not soluble

MNPKFPDSPFLNDLLARLGEVLRQSPAQDFERNLKAGVTSMLTKLDLVSREEFDVQAAVLARTREKLGQLEARLADLEKHERQADEG
soluble on expression in E. coli: not soluble

MSLSGIFNWSLDVFADIYNTLKFESNIDLDTIDFTSIKNDLANVLITPVPLDQSRSKLGDASKPVALPSGDEVKLNQASIEITGVLSNELDLDELNTAELLYNASDLSYKKGTSIGDSARLAYYLRAHYILNIVGYLVSHKRLDIITNNNQVLFDNILKSFSKIYTLSGKLNDMIDKQKVTGDINNLAFINCINYSRSQLFNAHELLGQVVFGLADNYYESYGTLNNYKSLVEFILKNISDEDVFVIHFLPSTLQLFKKLLQLGEESLVDQFYKTITSSILKDYEANNFSKSEDIDLSKSKLSGFEIVTSFIFLTEFIPWCKQLSSRTAKYDFKDDILKYMEFLISYGVMERLLSYCSETANAKTQQVYDWSNMYDFRALLQKNFPRLTPAKFHYPGNQELLNAVRPGYENVSKLIDISFLTLDPSLNETLVSPFFQSFFSVFISNAAVVMTSLRDSEEDFVLSSLNESDEGHHHHHH
soluble on expression in E. coli: soluble

SQTVHFQGNPVTVANSIPQAGSKAQTFTLVAKDLSDVTLGQFAGKRKVLNIFPSIDTGVSAASVRKFNQLATEIDNTVVLCISADLPFAQSRFCGAEGLNNVITLSTFRNAEFLQAYGVAIADGPLKGLAARAVVVIDENDNVIFSQLVDEITTEPDYEAALAVLKA
soluble on expression in E. coli: soluble

TDAPANQGFIIGVTGCPAGVAHTYLAAEALEKGAAAMGYEIKVETNGSIGVKNSPTAEEIERADAIIVACDKQVDMNRFAGKRVVKTNVKAPIRDAQGLINEALNAPTY
soluble on expression in E. coli: not soluble
